The target in this test is KDR (VEGF receptor, flk-1/KDR, VEGFR2) (human) (UniProt P35968). Nature of the test: in vitro receptor saturation; format not stated.

Regarding IMC-1C11 (antibody), the concentration at 50% saturation of VEGF receptors was found to be 0.2 µg/mL and the concentration at 100% saturation of VEGF receptors stood at 3 µg/mL.

The values above are taken from patent US20100260776A1.
